Laboratory results taken from patent US20210292396A1.

What was measured:
Experiment in all cases: cell-based or functional assay
[1] = molecular target: HIV Env of isolate T255-34 (HIV)
[2] = molecular target: HIV Env of isolate CNE40 (HIV)
[3] = molecular target: Env of HIV isolate Q168.a2 (clade AD) (HIV)
[4] = molecular target: HIV Env of isolate 6785.v5.c14 (HIV)
[5] = molecular target: HIV Env of isolate JRFL.JB (HIV)
[6] = molecular target: HIV Env of isolate 6535.3 (HIV)
[7] = molecular target: HIV Env of isolate 26191-2.48 (HIV)
[8] = molecular target: Env of HIV isolate BI369.9A (clade A) (HIV)
[9] = molecular target: HIV Env of isolate SS1196.01 (HIV)
[10] = molecular target: HIV Env of isolate 271-11 (HIV)
[11] = molecular target: HIV Env of isolate M02138 (HIV)
[12] = molecular target: Env of HIV isolate TH023.6 (clade AE) (HIV)
[13] = molecular target: Env of HIV isolate UG037.8 (clade A) (HIV)
[14] = molecular target: Env of HIV isolate CAP256.206.C9 (clade C) (HIV)
[15] = molecular target: HIV Env of isolate TRO.11 (HIV)
[16] = molecular target: Env of HIV isolate CH070.1 (clade BC) (HIV)
[17] = molecular target: HIV Env of isolate 0260.v5.c36 (HIV)
[18] = molecular target: Env of HIV isolate CNE56 (clade AE) (HIV)
[19] = molecular target: Env of HIV isolate RHPA.7 (clade B) (HIV)
[20] = molecular target: Env of HIV isolate QH0515.01 (clade B) (HIV)
[21] = molecular target: Env of HIV isolate 7165.18 (clade B) (HIV)
[22] = molecular target: HIV Env of isolate SC422.8 (HIV)
[23] = molecular target: Env of HIV isolate CNE21 (clade BC) (HIV)
[24] = molecular target: HIV Env of isolate P1981.C5.3 (HIV)
[25] = molecular target: Env of HIV isolate ZM106.9 (clade C) (HIV)
[26] = molecular target: Env of HIV isolate CNE5 (clade AE) (HIV)
[27] = molecular target: HIV Env of isolate R3265.c6 (HIV)
[28] = molecular target: Env of HIV isolate T278-50 (clade AG) (HIV)
[29] = molecular target: HIV Env of isolate 6644.v2.c33 (HIV)
[30] = molecular target: HIV Env of isolate CNE3 (HIV)
[31] = molecular target: HIV Env of isolate Q461.e2 (HIV)
[32] = molecular target: HIV Env of isolate ADA.DG (HIV)
[33] = molecular target: HIV Env of isolate 3988.25 (HIV)
[34] = molecular target: Env of HIV isolate Q842.d12 (clade A) (HIV)
[35] = molecular target: Env of HIV isolate ZM215.8 (clade C) (HIV)
[36] = molecular target: Env of HIV isolate BR025.9 (clade C) (HIV)
[37] = molecular target: Env of HIV isolate BG505.W6M.C2 (clade A) (HIV)
[38] = molecular target: HIV Env of isolate T251-18 (HIV)
[39] = molecular target: Env of HIV isolate CM244.ec1 (clade AE) (HIV)
[40] = molecular target: Env of HIV isolate 0439.v5.c1 (clade A) (HIV)
[41] = molecular target: HIV Env of isolate DU123.06 (HIV)
[42] = molecular target: HIV Env of isolate 7165.18 (HIV)
[43] = molecular target: HIV Env of isolate CNE56 (HIV)
[44] = molecular target: HIV Env of isolate MB201.A1 (HIV)
[45] = molecular target: Env of HIV isolate Q769.d22 (clade A) (HIV)
[46] = molecular target: HIV Env of isolate TZA125.17 (HIV)
[47] = molecular target: HIV Env of isolate 3016.v5.c45 (HIV)
[48] = molecular target: HIV Env of isolate 3718.v3.c11 (HIV)
[49] = molecular target: HIV Env of isolate AC10.29 (HIV)
[50] = molecular target: HIV Env of isolate 3326.v4.c3 (HIV)
[51] = molecular target: Env of HIV isolate SS1196.01 (clade B) (HIV)
[52] = molecular target: HIV Env of isolate 928-28 (HIV)
[53] = molecular target: HIV Env of isolate ZM249.1 (HIV)
[54] = molecular target: HIV Env of isolate ZM53.12 (HIV)

PGT121 (antibody)
IC80 [1]: > 50 µg/mL
IC80, pseudovirus neutralization [2]: 1.21 µg/mL
IC50, pseudovirus neutralization [3]: > 50 µg/mL
IC80, pseudovirus neutralization [4]: 0.108 µg/mL
IC80 [5]: 0.107 µg/mL
IC80 [6]: 0.0217 µg/mL
IC80, pseudovirus neutralization [7]: 0.236 µg/mL
IC50, pseudovirus neutralization [8]: 0.0283 µg/mL
IC80 [9]: 0.0307 µg/mL
IC80 [10]: > 50 µg/mL
IC80 [11]: > 50 µg/mL
IC50, pseudovirus neutralization [12]: > 50 µg/mL
IC50, pseudovirus neutralization [13]: 0.092 µg/mL
IC50, pseudovirus neutralization [14]: 0.02 µg/mL
IC80 [15]: 0.0583 µg/mL
IC50, pseudovirus neutralization [16]: 0.0137 µg/mL
IC80 [17]: 0.159 µg/mL
IC50, pseudovirus neutralization [18]: > 50 µg/mL
IC50, pseudovirus neutralization [19]: 0.0357 µg/mL
IC50, pseudovirus neutralization [20]: 2.83 µg/mL
IC50, pseudovirus neutralization [21]: 0.0363 µg/mL
IC80 [22]: 0.3 µg/mL
IC50, pseudovirus neutralization [23]: 0.0143 µg/mL
IC80, pseudovirus neutralization [24]: 0.013 µg/mL
IC50, pseudovirus neutralization [25]: 0.0127 µg/mL
IC50, pseudovirus neutralization [26]: > 50 µg/mL
IC80 [27]: > 50 µg/mL
IC50, pseudovirus neutralization [28]: > 50 µg/mL
IC80, pseudovirus neutralization [29]: 0.14 µg/mL
IC80 [30]: > 50 µg/mL
IC80 [31]: > 50 µg/mL
IC80 [32]: 0.109 µg/mL
IC80 [33]: 0.0287 µg/mL
IC50, pseudovirus neutralization [34]: 0.0217 µg/mL
IC50, pseudovirus neutralization [35]: 0.0307 µg/mL
IC50, pseudovirus neutralization [36]: 0.00967 µg/mL
IC50, pseudovirus neutralization [37]: 0.0513 µg/mL
IC80 [38]: 23.2 µg/mL
IC50, pseudovirus neutralization [39]: > 50 µg/mL
IC50, pseudovirus neutralization [40]: > 50 µg/mL
IC80, pseudovirus neutralization [41]: 0.135 µg/mL
IC80 [42]: 0.103 µg/mL
IC80 [43]: > 50 µg/mL
IC80 [44]: 0.0283 µg/mL
IC50, pseudovirus neutralization [45]: > 50 µg/mL
IC80, pseudovirus neutralization [46]: 9.43 µg/mL
IC80, pseudovirus neutralization [47]: > 50 µg/mL
IC80 [48]: 4.76 µg/mL
IC80 [49]: 0.149 µg/mL
IC80, pseudovirus neutralization [50]: > 50 µg/mL
IC50, pseudovirus neutralization [51]: 0.0123 µg/mL
IC80 [52]: 29.9 µg/mL
IC80, pseudovirus neutralization [53]: > 50 µg/mL
IC80, pseudovirus neutralization [54]: 0.00767 µg/mL
